According to patent US12338281B2, “Anti-adrenomedullin antibodies and pharmaceutical compositions thereof” (ADRENOMED AG, priority 2011, dated 2025):

Assays:
Human ADM 1-52 = biological target: T1, Human ADM 1-52 (Homo sapiens, UniProt P35318); experiment: Human recombinant Adrenomedullin receptor (CRLR+RAMP3) cAMP functional assay (Adrenomedullin Bioassay) in CHO-K1 cells, agonist human ADM; type: cell-based; settings: Table 3; 5.63 nM Human ADM 1-52; antibody 0.16-100 μg/ml
T1 construct: host or cells: the receptor chains are made by transfected CHO-K1 cells (FAST-027C); ADM is an added peptide
T1 sequence (P35318 95-146): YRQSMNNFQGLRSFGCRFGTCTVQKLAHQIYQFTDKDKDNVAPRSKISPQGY
Description: The effect of selected ADM-antibodies on ADM-bioactivity was tested in an human recombinant Adrenomedullin receptor cAMP functional assay (Adrenomedullin Bioassay).
• Cell line: CHO-K1 • Receptor: Adrenomedullin (CRLR+RAMP3) • Receptor Accession Number Cell line: CRLR: U17473; RAMP3: AJ001016
Dose response curves were performed in parallel with the reference agonists (hADM or mADM).
For antagonist testing, 6 μl of the reference agonist (human (5.63 nM) or mouse (0.67 nM) adrenomedullin) was mixed with 6 μl of the test samples at different antagonist dilutions; or with 6 μl buffer. After incubation for 60 min at room temperature, 12 μl of cells (2,500 cells/well) were added. The plates were incubated for 30 min at room temperature.
The anti-h-ADM antibodies (NT-H, MR-H, CT-H) were tested for antagonist activity in human recombinant adrenomedullin receptor (FAST-027C) cAMP functional assay in the presence of 5.63 nM Human ADM 1-52, at the following final antibody concentrations: 100 μg/ml, 20 μg/ml, 4 μg/ml, 0.8 μg/ml, 0.16 μg/ml.

hADM = biological target: T2, hADM (Homo sapiens, UniProt P35318); experiment: Stability of human Adrenomedullin in human citrate plasma, quantified by hADM immunoassay; type: in vitro ADME; settings: 10 nM hADM, 24° C., NT-H 100 μg/ml
T2 sequence (P35318 95-146 limits assumed): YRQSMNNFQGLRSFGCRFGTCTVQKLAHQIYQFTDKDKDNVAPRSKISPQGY
Description: The stabilizing effect of human ADM by human ADM antibodies was tested using a hADM immunoassay.
The technology used was a sandwich coated tube luminescence immunoassay, based on Acridinium ester labelling.
The final concentration was approx. 800.000 relative light units (RLU) of labelled compound (approx. 20 ng labeled antibody) per 200 μL.
After blocking with 5% bovine serum albumine, the tubes were washed with PBS, pH 7.4 and vacuum dried.
Unbound tracer was removed by washing 5 times (each 1 ml) with washing solution (20 mM PBS, pH 7.4, 0.1% Triton X-100).
Human ADM was diluted in human Citrate plasma (final concentration 10 nM) and incubated at 24° C. At selected time points, the degradation of hADM was stopped by freezing at −20° C. […] The remaining hADM was quantified by using the hADM immunoassay described above.

B1: NT-H: mouse monoclonal antibody raised against human ADM 1-21, … (SEQ ID: 15) (antibody, V domains shown)
VH: QVQLQQSGAELMKPGASVKISCKATGYTFSRYWIEWVKQRPGHGLEWIGEILPGSGSTNYNEKFKGKATITADTSSNTAYMQLSSLTSEDSAVYYCTEGYEYDGFDYWGQGTTLTVSS
VL: DVLLSQTPLSLPVSLGDQATISCRSSQSIVYSNGNTYLEWYLQKPGQSPKLLIYRVSNRFSGVPDRFSGSGSGTDFTLKISRVEAEDLGVYYCFQGSHIPYTFGGGTKLEIK
Maximal inhibition of ADM bioactivity (ADM-Bioassay) (%) (Human ADM 1-52): 38% | half life of hADM in the presence of NT-H (hADM): 18.3 h
